Target: T1, Lumio-Green-labelled RFXV-motif-possessing peptide derived from WNK4 (EP4543) (not fully specified; Lumio Green fluorophore conjugated to the N-terminal linker CCPGCCGGGG)
T1 construct: N-terminal linker required for conjugating to the Lumio Green fluorophore; stretch of WNK4 with the RFQV motif; also called WNK peptide; RFXV peptide; source: synthetic peptide (GL Biochem)
T1 peptide: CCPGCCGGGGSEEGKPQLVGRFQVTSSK
Assay: fluorescence polarisation; SPAK protein titrated against 10 nM Lumio-Green-labelled peptide; 25°C; 50 mM Tris-HCl pH 7.5, 150 mM NaCl, 2 mM DTT; one-site-specific binding model
Settings: both partners purified

B1: human SPAK 452-547 with L491A (domain or fragment)
chain: not shown
notes: SPAK, human, residues 452-547 (end), the CCT domain, L491A; pGEX-6P-1 construct; GST-SPAK proteins were eluted with 20 mM glutathione and no cleavage of GST is described, so GST was probably still on the protein; also called SPAK CCT domain L491A (equivalent to L502 in mouse); source: E. coli BL21, purified (glutathione-Sepharose)
- fold reduction of binding against wild-type SPAK 452-547: ~100 fold

Source: PMC4512625, “Critical role of the SPAK protein kinase CCT domain in controlling blood pressure” (Human Molecular Genetics, 2015)
